Patent US11814447B2, “Peptide ligands for binding to EphA2” (BICYCLERD LIMITED, priority 2018, dated 2023)
Values belong to the binder of their own block, whether it stands above or below them. Starred links: 1 amine or outer side, 2 acyl side, 3 side chain; linkers in the order of their positions; H or OH if unused. Positions of bridges follow the written chain, without caps; N, C: chain ends. Non-standard residues stand in square brackets, D forms with d. Primed or numbered codes have the meaning given here. No end group written: not given here. TBMB′ = 1,3,5-tris(bromomethyl)benzene, 1,3,5-tris(methylene)benzene core, three thioethers to Cys; 4FlPro = 4-fluoropyrrolidine-2-carboxylic acid (4-fluoroproline); TATA = O=C(CC[*:1])N1CN(C(=O)CC[*:2])CN(C(=O)CC[*:3])C1; Phe(3,4-Cl2) = N[C@@H](Cc1ccc(Cl)c(Cl)c1)C(=O)O; Bip = N[C@@H](Cc1ccc(-c2ccccc2)cc1)C(=O)O; Phe(4-Br) = N[C@@H](Cc1ccc(Br)cc1)C(=O)O; 1Nal = N[C@@H](Cc1cccc2ccccc12)C(=O)O; 2Nal = N[C@@H](Cc1ccc2ccccc2c1)C(=O)O; TBMB = c1c(C[*:1])cc(C[*:3])cc1C[*:2]; Hyp = O=C(O)[C@@H]1C[C@@H](O)CN1; 3Pal = N[C@@H](Cc1cccnc1)C(=O)O; Phg = N[C@H](C(=O)O)c1ccccc1; Pip = O=C(O)[C@@H]1CCCCN1; Aze = O=C(O)[C@@H]1CCN1; Aib = CC(C)(N)C(=O)O; Sar = CNCC(=O)O

Columns and labels:
Human EphA2 (Ecto) = molecular target: T1, Human EphA2 (Ecto) (Human, UniProt P29317 24-537); assay: FP competition; tracer Reference Compound C
T1 construct: extracellular domain; in-house)
Protocol: (§1) Peptides without a fluorescent tag were tested in competition with a peptide with a fluorescent tag and a known Kd (Table 2). Peptides were diluted to an appropriate concentration in assay buffer as described in the direct binding assay with a maximum of 5% DMSO, then serially diluted 1 in 2. […] Measurements were conducted as for the direct binding assay, however the gain was determined prior to the first measurement. Data analysis was in Systat Sigmaplot version 12.0 where the mP values were fit to a user defined cubic equation to generate a Ki value: […]

[1] = molecular target: T2, Human EphA2 (Ecto), C-terminal polyHis (Human, UniProt P29317 24-537); assay: fluorescence polarisation competition; competitor fluorescent Compound 66
T2 construct: extracellular domain; also called EPH receptor A2; ephrin type-A receptor 2
Protocol: as §1

T2 sequence (P29317 24-537): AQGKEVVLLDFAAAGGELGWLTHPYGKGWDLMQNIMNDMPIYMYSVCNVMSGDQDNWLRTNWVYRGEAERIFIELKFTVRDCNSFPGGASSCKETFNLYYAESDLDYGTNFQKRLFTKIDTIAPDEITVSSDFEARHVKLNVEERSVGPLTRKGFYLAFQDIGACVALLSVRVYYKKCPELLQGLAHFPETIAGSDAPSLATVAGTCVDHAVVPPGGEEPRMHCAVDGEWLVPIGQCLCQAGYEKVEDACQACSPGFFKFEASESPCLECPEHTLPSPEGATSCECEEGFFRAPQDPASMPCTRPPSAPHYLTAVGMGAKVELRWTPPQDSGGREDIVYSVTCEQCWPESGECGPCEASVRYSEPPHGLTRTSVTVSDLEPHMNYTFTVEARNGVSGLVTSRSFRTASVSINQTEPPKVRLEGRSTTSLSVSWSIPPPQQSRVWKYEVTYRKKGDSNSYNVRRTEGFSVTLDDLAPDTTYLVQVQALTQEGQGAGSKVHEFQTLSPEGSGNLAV
T1 sequence (P29317 24-537): as above

B1: Bicycle Compound Number 75 (TATA scaffold), (β-Ala)-Sar10-ACPLVNPLCLHPGWTCLHG (peptide)
peptide: XXXXXXXXXXXACPLVNPLCLHPGWTCLHG
modifications: N-terminal (β-Ala)-Sar10; 3 Cys thioether-linked to TATA scaffold
Ki (Human EphA2 (Ecto)): 2.48 nM

B2: Bicycle Compound Number 70 (TATA scaffold), RPACPLVNPLCLHPGWTCA (peptide)
peptide: RPACPLVNPLCLHPGWTCA
modifications: linker 4-11-18 via TATA
Ki (Human EphA2 (Ecto)): 10.1 nM

B3: Bicycle Compound Number 71 (TATA scaffold), RPPCPLVNPLCLHPGWTCA (peptide)
peptide: RPPCPLVNPLCLHPGWTCA
modifications: linker 4-11-18 via TATA
Ki (Human EphA2 (Ecto)): 11.1 nM

B4: Bicycle Compound Number 33 (TBMB scaffold) (peptide)
peptide: ACRVSPEYCPFGPVWCA
modifications: linker 2-9-16 via TBMB
notes: also called Compound 33
Ki [1]: 78.5 nM

B5: Bicycle Compound Number 36 (TBMB scaffold) (peptide)
peptide: ACRVSPEYCPFGPSWCA
modifications: linker 2-9-16 via TBMB
notes: also called Compound 36
Ki [1]: 40.5 nM

B9: Bicycle Compound Number 77 (TBMB scaffold) (peptide)
peptide: [Sar][Sar]ACP[2Nal]GPFWCPVNRPGC
modifications: linker 4-11-18 via TBMB
notes: also called Compound 77
Ki [1]: 458 nM

B10: Bicycle Compound Number 62 (TATA scaffold), ACPLVNPLCMMGGWKCA (peptide)
peptide: ACPLVNPLCMMGGWKCA
modifications: linker 2-9-16 via TATA (inferred)
Ki (Human EphA2 (Ecto)): 67.1 nM

B12: Bicycle Compound Number 74 (TBMB scaffold) (peptide)
peptide: [Sar][Sar]AC[Aib]WGPFWCPVNRPGC
modifications: linker 4-11-18 via TBMB
notes: also called Compound 74
Ki [1]: 139 nM

B14: Bicycle Compound Number 60 (TATA scaffold), ACPLVNPLCMIGNWTCA (peptide)
peptide: ACPLVNPLCMIGNWTCA
modifications: linker 2-9-16 via TATA (inferred)
Ki (Human EphA2 (Ecto)): 96.2 nM

B15: Bicycle Compound Number 53 (TATA scaffold), ACPMVNPLCLHPGWICA (peptide)
peptide: ACPMVNPLCLHPGWICA
modifications: linker 2-9-16 via TATA (inferred)
Ki (Human EphA2 (Ecto)): 15.4 nM

B16: Bicycle Compound Number 55 (TATA scaffold), ACPLVNPLCLHPGWRCA (peptide)
peptide: ACPLVNPLCLHPGWRCA
modifications: linker 2-9-16 via TATA (inferred)
Ki (Human EphA2 (Ecto)): 20.6 nM

B18: Bicycle Compound Number 54 (TATA scaffold), ACPLVNPLCLHPGWICA (peptide)
peptide: ACPLVNPLCLHPGWICA
modifications: linker 2-9-16 via TATA (inferred)
Ki (Human EphA2 (Ecto)): 15.2 nM

B21: Bicycle Compound Number 57 (TATA scaffold), ACPLVNPLCLVPGWSCA (peptide)
peptide: ACPLVNPLCLVPGWSCA
modifications: linker 2-9-16 via TATA (inferred)
Ki (Human EphA2 (Ecto)): 35.4 nM

B25: Bicycle Compound Number 58 (TATA scaffold), ACPLVNPLCLLDGWTCA (peptide)
peptide: ACPLVNPLCLLDGWTCA
modifications: linker 2-9-16 via TATA (inferred)
Ki (Human EphA2 (Ecto)): 38.4 nM

B26: Bicycle Compound Number 74 (TATA scaffold), Ac-CPLVNPLCLHPGWTCLHG (peptide)
peptide: Ac-CPLVNPLCLHPGWTCLHG
modifications: linker 1-8-15 via TATA
Ki (Human EphA2 (Ecto)): 1.76 nM

B27: Bicycle Compound Number 63 (TATA scaffold), ACPLVNPLCLYGSWKCA (peptide)
peptide: ACPLVNPLCLYGSWKCA
modifications: linker 2-9-16 via TATA (inferred)
Ki (Human EphA2 (Ecto)): 59 nM

B28: Bicycle Compound Number 30 (TBMB scaffold) (peptide)
peptide: ACMNDWLCQLGWTCA
modifications: linker 2-8-14 via TBMB
notes: also called Compound 30
Ki [1]: 56 nM

B29: Bicycle Compound Number 24 (TBMB scaffold) (peptide)
peptide: ACMNDWLCSLGWTCA
modifications: linker 2-8-14 via TBMB
notes: also called Compound 24
Ki [1]: 82.3 nM

B34: Bicycle Compound Number 56 (TATA scaffold), ACPLVNPLCNLPGWTCA (peptide)
peptide: ACPLVNPLCNLPGWTCA
modifications: linker 2-9-16 via TATA (inferred)
Ki (Human EphA2 (Ecto)): 184 nM

B36: Bicycle Compound Number 46 (TBMB scaffold) (peptide)
peptide: ACPWGPMWCPVNRPGCA
modifications: linker 2-9-16 via TBMB (inferred)
notes: also called Compound 46
Ki [1]: 95.8 nM

B37: Bicycle Compound Number 69 (TATA scaffold), Ac-A(HArg)DCPLVNPLCLHPGWTCA-Sar6-(D-K) (peptide)
peptide: AXDCPLVNPLCLHPGWTCAXXXXXXK
modifications: N-terminal acetyl; X2 = HArg (homoarginine); X at 20-25 = Sar; K26 = D-Lys; 3 Cys thioether-linked to TATA scaffold
Ki (Human EphA2 (Ecto)): 17.5 nM

B38: Bicycle Compound Number 59 (TATA scaffold), ACPLVNPLCLMPGWGCA (peptide)
peptide: ACPLVNPLCLMPGWGCA
modifications: linker 2-9-16 via TATA (inferred)
Ki (Human EphA2 (Ecto)): 114 nM

B39: Bicycle Compound Number 61 (TATA scaffold), ACPLVNPLCLMTGWSCA (peptide)
peptide: ACPLVNPLCLMTGWSCA
modifications: linker 2-9-16 via TATA (inferred)
Ki (Human EphA2 (Ecto)): 242 nM

Further lines, results first:

Ki [1]: 183 nM
B6: Bicycle Compound Number 88 (TBMB scaffold) (peptide)
peptide: [Sar][Sar]ACPWGP[Bip]WCPVNRPGC
modifications: linker 4-11-18 via TBMB′
notes: also called Compound 88

Ki [1]: 270 nM
B7: Bicycle Compound Number 99 (TBMB scaffold) (peptide)
peptide: [Sar][Sar]ACPWGPFWC[4FlPro]VNRPGC
modifications: linker 4-11-18 via TBMB
notes: also called Compound 99

Ki [1]: 155 nM
B8: Bicycle Compound Number 106 (TBMB scaffold) (peptide)
peptide: [Sar][Sar]ACPWGPFWCPVNR[Aze]GC
modifications: linker 4-11-18 via TBMB

Ki [1]: 174 nM
B11: Bicycle Compound Number 85 (TBMB scaffold) (peptide)
peptide: [Sar][Sar]ACPWGP[Phe(4-Br)]WCPVNRPGC
modifications: linker 4-11-18 via TBMB′
notes: also called Compound 85

Ki [1]: 362 nM
B13: Bicycle Compound Number 95 (TBMB scaffold) (peptide)
peptide: [Sar][Sar]ACPWGP[2Nal]WCPVNRPGC
modifications: linker 4-11-18 via TBMB′
notes: also called Compound 95

Ki (Human EphA2 (Ecto)): 53.9 nM
B17: Bicycle Compound Number 84 (TATA scaffold), ACPLVNPLCLEPGWTCA (peptide)
peptide: ACPLVNPLCLEPGWTCA
modifications: linker 2-9-16 via TATA

Ki (Human EphA2 (Ecto)): 46.2 nM
B19: Bicycle Compound Number 82 (TATA scaffold), ACPLVNPLCLAPGWTCA (peptide)
peptide: ACPLVNPLCLAPGWTCA
modifications: linker 2-9-16 via TATA

Ki (Human EphA2 (Ecto)): 20 nM
B20: Bicycle Compound Number 97 (TATA scaffold), ACPMVNPLCLHPGWTCA (peptide)
peptide: ACPMVNPLCLHPGWTCA
modifications: linker 2-9-16 via TATA

Ki (Human EphA2 (Ecto)): 56.1 nM
B22: Bicycle Compound Number 86 (TATA scaffold), ACPLVNPLCLHPGWSCA (peptide)
peptide: ACPLVNPLCLHPGWSCA
modifications: linker 2-9-16 via TATA

Ki (Human EphA2 (Ecto)): 9.8 nM
B23: Bicycle Compound Number 81 (TATA scaffold), TPRCPLVNPLCLMPGWTCA (peptide)
peptide: TPRCPLVNPLCLMPGWTCA
modifications: linker 4-11-18 via TATA

Ki [1]: 8.4 nM
B24: Bicycle Compound Number 119 (TBMB scaffold) (peptide)
peptide: [Sar][Sar]ACP[1Nal]G[Aib]FWCPVNRPGC
modifications: linker 4-11-18 via TBMB

Ki [1]: 497 nM
B30: Bicycle Compound Number 82 (TBMB scaffold) (peptide)
peptide: [Sar][Sar]ACPWG[Pip]FWCPVNRPGC
modifications: linker 4-11-18 via TBMB′
notes: also called Compound 82

Ki (Human EphA2 (Ecto)): 1.64 nM
B31: Bicycle Compound Number 88 (TATA scaffold), Ac-CPLVNPLCLHPGWSCRGQ (peptide)
peptide: Ac-CPLVNPLCLHPGWSCRGQ
modifications: linker 1-8-15 via TATA

Ki [1]: 361 nM
B32: Bicycle Compound Number 90 (TBMB scaffold) (peptide)
peptide: [Sar][Sar]ACPWGP[Phe(3,4-Cl2)]WCPVNRPGC
modifications: linker 4-11-18 via TBMB′
notes: also called Compound 90

Ki [1]: 412 nM
B33: Bicycle Compound Number 93 (TBMB scaffold) (peptide)
peptide: [Sar][Sar]ACPWGP[Phg]WCPVNRPGC
modifications: linker 4-11-18 via TBMB′
notes: also called Compound 93

Ki [1]: 43 nM
B35: Bicycle Compound Number 114 (TBMB scaffold) (peptide)
peptide: [Sar][Sar]AC[Aib]WGPF[1Nal]CPVNRPGC
modifications: linker 4-11-18 via TBMB

Ki (Human EphA2 (Ecto)): 228 nM
B40: Bicycle Compound Number 93 (TATA scaffold), ACPLVNPLCLHPG(2Nal)SCRGQ (peptide)
peptide: ACPLVNPLCLHPG[2Nal]SCRGQ
modifications: linker 2-9-16 via TATA

Ki (Human EphA2 (Ecto)): 13.2 nM
B41: Bicycle Compound Number 94 (TATA scaffold), ACPLVNPLCLTPGWTCTNT (peptide)
peptide: ACPLVNPLCLTPGWTCTNT
modifications: linker 2-9-16 via TATA

Ki [1]: 184 nM
B42: Bicycle Compound Number 109 (TBMB scaffold) (peptide)
peptide: [Sar][Sar]ACPWGPFWCPVNR[4FlPro]GC
modifications: linker 4-11-18 via TBMB

Ki (Human EphA2 (Ecto)): 10.9 nM
B43: Bicycle Compound Number 85 (TATA scaffold), ACPLVNPLCLEPGWTCAKR (peptide)
peptide: ACPLVNPLCLEPGWTCAKR
modifications: linker 2-9-16 via TATA

Ki [1]: 163 nM
B44: Bicycle Compound Number 98 (TBMB scaffold) (peptide)
peptide: [Sar][Sar]ACPWGPFWC[Hyp]VNRPGC
modifications: linker 4-11-18 via TBMB′
notes: also called Compound 98

Ki [1]: 286 nM
B45: Bicycle Compound Number 97 (TBMB scaffold) (peptide)
peptide: [Sar][Sar]ACPWGPFWC[Aze]VNRPGC
modifications: linker 4-11-18 via TBMB′
notes: also called Compound 97

Ki [1]: 374 nM
B46: Bicycle Compound Number 108 (TBMB scaffold) (peptide)
peptide: [Sar][Sar]ACPWGPFWCPVNR[Pip]GC
modifications: linker 4-11-18 via TBMB

Ki [1]: 138 nM
B47: Bicycle Compound Number 91 (TBMB scaffold) (peptide)
peptide: [Sar][Sar]ACPWGPYWCPVNRPGC
modifications: linker 4-11-18 via TBMB′
notes: also called Compound 91

Ki [1]: 471 nM
B48: Bicycle Compound Number 105 (TBMB scaffold) (peptide)
peptide: [Sar][Sar]ACPWGPFWCPVNR[dA]GC
modifications: linker 4-11-18 via TBMB

Ki [1]: 265 nM
B49: Bicycle Compound Number 101 (TBMB scaffold) (peptide)
peptide: [Sar][Sar]ACPWGPFWCPVARPGC
modifications: linker 4-11-18 via TBMB

Ki [1]: 165 nM
B50: Bicycle Compound Number 92 (TBMB scaffold) (peptide)
peptide: [Sar][Sar]ACPWGP[3Pal]WCPVNRPGC
modifications: linker 4-11-18 via TBMB′
notes: also called Compound 92

Ki [1]: 196 nM
B51: Bicycle Compound Number 94 (TBMB scaffold) (peptide)
peptide: [Sar][Sar]ACPWGP[1Nal]WCPVNRPGC
modifications: linker 4-11-18 via TBMB′
notes: also called Compound 94

Ki (Human EphA2 (Ecto)): 162 nM
B52: Bicycle Compound Number 79 (TATA scaffold), ACPLVNPLCLHPG(2Nal)TCLHG (peptide)
peptide: ACPLVNPLCLHPG[2Nal]TCLHG
modifications: linker 2-9-16 via TATA
